Values of other authors, collected in patent US7202065B2, “Stabilized liquid preparation of the protease which activates blood coagulation factor VII, or of its proenzyme” (ZLB Behring GmbH, priority 2001, dated 2007).

Conditions: solution containing 20 mM Tris, 0.15 mM NaCI at a pH of 7.5

proenzyme: proenzyme, which is the non-activated form of the protease which activates blood coagulation factor VII
loss of activity after enrichment or isolation: rapid loss of activity
